Data reported in US6451314B1, “MHC conjugates useful in ameliorating autoimmunity” (Anergen, Inc., priority 1988, dated 2002).

B1: I-A^k: mouse Class II MHC glycoprotein I-A^k purified by affinity chromatography on 10-2.16 antibody (protein)
MHC II alpha: EDDIEADHVGSYGITVYQSPGDIGQYTFEFDGDELFYVDLDKKETVWMLPEFAQLRRFEPQGGLQNIATGKHNLEILTKRSNSTPATNEAPQATVFPKSPVLLGQPNTLICFVDNIFPPVINITWLRNSKSVTDGVYETSFFVNRDYSFHKLSYLTFIPSDDDIYDCKVEHWGLEEPVLKHWEPEIPAPMSELTE
MHC II beta: GNSERHFVHQFQPFCYFTNGTQRIRLVIRYIYNREEYVRFDSDVGEYRAVTELGRPDAEYWNKQYLERTRAELDTVCRHNYEKTETPTSLRRLEQPSVVISLSRTEALNHHNTLVCSVTDFYPAKIKVRWFRNGQEETVGVSSTQLIRNGDWTFQVLVMLEMTPRRGEVYTCHVEHPSLKSPITVEWRAQSESARSK

Assays:
Lewis rats = assay: Therapeutic treatment of clinical stage 1 EAMG
RT1.B = assay: Peptide loading of rat MHC II (nitrocellulose filter binding and TLC); conditions: 50-fold molar excess peptide, 37° C., 24 hours
Method: (§1) Rat MHC II Purification and Peptide Loading. Rat class II RT1.B and RT1.D molecules were detergent solubilized (0.5% NP-40, 10 mM Tris HCl pH 8.3, 1 mM PMSF, 0.02% NaN3) from homogenized spleens and purified by affinity chromatography with monoclonal antibodies OX 6 and […]. The RT1.B/D mixture was incubated at 37° C. for 24 hours with a 50-fold molar excess of peptide AChRα 100-116, followed by 24 hours of dialysis at 4° C. against 0.1% OG/PBS to remove unbound peptide. […] This complex is stable at 4° C. for at least 8 weeks.

RT1.D = assay: as above; conditions: 50-fold molar excess peptide, 37° C., 24 hours
Method: as §1

[1] = Serum half-life of 125I-labeled I-A^s, effect of liposomes; format: in vivo, mice; conditions: Sets 1 and 2: 10 μg, injected without blank liposomes
Method: (§2) The protocol for these studies was generally as follows: Affinity-purified, soluble MHC molecules were labeled with ^125I by the iodobeads method (Pierce Chemical Co., Rockford, Ill. Excess ^125I was removed by dialysis against PBS containing 0.1% neutral detergent. The quality of the labeled protein was assessed by thin layer chromatography, cellulose acetate electrophoresis, and polyacrylamide gel electrophoresis. The MHC glycoprotein was administered by tail vein injection to mice subjected to Lugol's solution in the drinking water at least one day before injection. Blood samples were obtained at different time points. The animals were then sacrificed to obtain organs of interest. Radioactivity in the blood and organ samples was detected in a gamma well counter according to standard techniques.
I-A^s was labeled as described above. The labeled I-A^s molecules were captured inside liposomes by standard procedures (see, e.g., Remingtion's, supra). Ten mice were injected with 10 μg I-A^s, as described above, and divided into four sets: (1) I-A^s alone; (2) liposomal I-A^s; (3) liposomal I-A^s coinjected with blank liposomes; and (4) blank liposomes plus, 10 minutes later, liposomal I-A^s coinjected with blank liposomes. Blood samples were obtained at different time points after injection, and the percent of injected dose of I-A^s retained in the blood was calculated.

[2] = tested on: T cell clones AJ1.2 and 4R3.4; assay: Proliferation (MTT uptake) of T cell clones with APC and MBP(1-13) after preincubation; format: cell-based, mouse; conditions: preincubation five hours at 37° C., 72-hour incubation
Method: The effects of detergent-solubilized Class II molecules were examined by culturing 1×10^5 AJ1.2 or 4R3.4 cells with 50-100 ul of purified I-A^k alone, purified I-A^k plus MBP(1-13) and medium alone for five hours at 37° C. in 5% CO2. Following this incubation the cells were diluted to 900 ul and tested for their ability to respond to antigen-presenting cells (APC) and antigen [MBP(1-13)] in a proliferation assay. Uptake of 3-(4,5-dimethyl-thiazol-2-7′)-2,5 diphenyltetrazolium bromide (MTT) was used as an indication of cell proliferation.
Data are presented as % suppression of proliferation of cells incubated with Class I+Ag compared to cells cultured with medium alone and were calculated by using the formula:
Therefore, 4R3.4 or AJ1.2 cells were preincubated with 50-100 ul of I-A^k+MBP(1-13), I-A^k, or medium alone for five hours at 37° C. The cells were then diluted to an appropriate concentration and added to APC. Antigen [MBP(1-13)] was added to a final concentration ranging from 13.3 um to 53.2 um.
APC used in the study were prepared from spleens of female A/J mice. […] Following this incubation, spleen cells were washed five times with RPMI containing antibiotics, counted, and used as APC's.
Following a 72-hour incubation period of the cells with APC and MBP(1-13), the extent of proliferation was quantitated using MTT uptake. […]

[3] = Serum half-life of 125I-labeled I-A^k, effect of periodate/cyanoborohydride treatment; format: in vivo, mice; conditions: 10 μg i.v.
Method: as §2
I-A^k in a phosphate buffer containing 3 mM taurodeoxycholate at pH 7.5 was labeled as described above. The labeled molecules were subjected to periodate oxidation and cyanoborohydride reduction for 5 or 21 hours at 4° C., using 20 mM sodium periodate and 40 mM cyanoborohydride (final concentrations) in 0.1 M acetate buffer at pH 5.5. The reaction was quenched by addition of ethylene glycol (final concentration 0.7%). […] Blood samples were obtained at different time points and the percent of injected dose of I-A^k retained in the blood was calculated.

[4] = Serum half-life of 125I-labeled I-A^k, effect of asialoletuin; format: in vivo, mice
Method: as §2
IA^k was labeled and administered to mice as described above. The mice were divided into three sets: (1) I-A^k (10 μg i.v.); (2) I-A^k (10 μg i.v.) plus asialoletuin (10 mg i.v.) plus asialoletuin (100 mg i.p.); and (3) I-A^k (10 μg i.v.) plus asialoletuin (10 mg i.p.). Blood was drawn at different time points and the percent of injected dose retained in the blood was calculated.

Molecule | clinical stage of representative rat (Lewis rats; 61 days post EAMG induction) | clinical stage of representative rat (Lewis rats; 123 days post EAMG induction) | survival frequency (Lewis rats; 140 days post-induction, five weekly i.v. injections from clinical stage 1) | fraction of RT1.B that bound peptide (RT1.B) | fraction of RT1.D that bound peptide (RT1.D) | serum mean half-life [1] | proliferation in presence of APC and MBP(1-13) [2] | serum half-life [3] | mean serum half-life ([4]; Set 1: I-A^k 10 μg i.v.) | mean serum half-life ([4]; Set 2: I-A^k 10 μg i.v. plus asialoletuin 10 mg i.v. plus asialoletuin 100 mg i.p.) | mean serum half-life ([4]; Set 3: I-A^k 10 μg i.v. plus asialoletuin 10 mg i.p.)
YAIVHMTKLLLDYPGKI [AChRα 100-116, Torpedo AChRα subunit peptide 100-116] | 2.5 | Dead (day 66) | 0% | 70-80% | 90-100% |  |  |  |  |  | 
B1 |  |  |  |  |  | 2 min | proliferated to the same extent as cells cultured in medium | 4 min | 3 min | 40 min | 35 min
